Experimental data taken from patent CN117820472A (VAZYME MEDICAL CO LTD; HUNAN NOVAZYME MEDICAL TECH CO LTD, dated 2024).
Ends that are not written are not given here.

Target: T1, Tau 181多肽 (also: biotin coupling for SA coating, place not given here)
T1 peptide: CPPAPKTPP
Experiment: indirect ELISA, cell supernatants on SA+biotin peptide plates (m1 as a member of the 80 antibodies)

binding result: no binding
B1: Anti-p-Tau 181-rRmab-1 (antibody, V domains shown)
VH: CQSVEESGGRLVTPGTPLTLTCTVSGFSLSIYAMSWVRQAPGKGLEYIGYIVSSGSTYYASWAKGRVTISKTSSTTVDLKITSPATEDTATYFCARGSITGFTRLELWGQGTLVTVSS
VL: DIVMTQTPASVEAAVGGTVTIKCQASESISSGLAWYQQKPGQPPKLLIYGASTLASGVPSRFKGSRSGTEYTLTISDLECADAATYYCQSYYYSSGSSLLYGFGGGTEVVVK
notes: Recombinant rabbit monoclonal antibody from single B cell cloning, expressed in HEK293 cells and purified on protein A. Only the variable domains are printed
